In publication PMC5976439:

Legend:
[1] = target: APM (acidic patch mutant) mononucleosome, H2A E61A, E64A, D90A, D92A (Xenopus laevis)
[2] = target: wild type mononucleosome (recombinant Xenopus laevis histone octamer on 601 DNA) (Xenopus laevis)
[3] = target: wild type mononucleosome (recombinant Xenopus laevis histone octamer on 601 DNA) (Xenopus laevis); remark: listed apart in the source

Substance | apparent Km (KM^app) of the gel remodeling rate against SNF2h concentration, 0/60 APM nucleosomes, cooperative binding model [1] | apparent Km (KM^app) of the gel remodeling rate against SNF2h concentration, 0/60 WT nucleosomes, cooperative binding model [2] | reduction of the rate constant of remodeling of WT nucleosomes by sub-saturating SNF2h, dose-dependent, up to 50 µM LANA peptide; the pair that is blocked: SNF2h and the nucleosome [3]
SNF2h (human ISWI ATPase), purified from E. coli (from UniProt O60264 1-1052) (enzyme) | 0.28 µM | 0.061 µM | 
LANA peptide (from the latency associated nuclear antigen of Kaposi's sarcoma-associated herpesvirus) |  |  | 200 fold
